Results taken from article PMC12187869, “Transport of the uremic toxin symmetric dimethylarginine (SDMA) by renal transport proteins” (Amino Acids, 2025).

Substrate: CN=C(NC)NCCC[C@H](N)C(=O)O
Assay: [3H]SDMA uptake kinetics (Km) and efflux in HEK-OATP4C1 cells
Format: cell-based, Homo sapiens

B1: OATP4C1 (Homo sapiens) (protein)
chain: MKSAKGIENLAFVPSSPDILRRLSASPSQIEVSALSSDPQRENSQPQELQKPQEPQKSPEPSLPSAPPNVSEEKLRSLSLSEFEEGSYGWRNFHPQCLQRCNTPGGFLLHYCLLAVTQGIVVNGLVNISISTVEKRYEMKSSLTGLISSSYDISFCLLSLFVSFFGERGHKPRWLAFAAFMIGLGALVFSLPQFFSGEYKLGSLFEDTCVTTRNSTSCTSSTSSLSNYLYVFILGQLLLGAGGTPLYTLGTAFLDDSVPTHKSSLYIGTGYAMSILGPAIGYVLGGQLLTIYIDVAMGESTDVTEDDPRWLGAWWIGFLLSWIFAWSLIIPFSCFPKHLPGTAEIQAGKTSQAHQSNSNADVKFGKSIKDFPAALKNLMKNAVFMCLVLSTSSEALITTGFATFLPKFIENQFGLTSSFAATLGGAVLIPGAALGQILGGFLVSKFRMTCKNTMKFALFTSGVALTLSFVFMYAKCENEPFAGVSESYNGTGELGNLIAPCNANCNCSRSYYYPVCGDGVQYFSPCFAGCSNPVAHRKPKVYYNCSCIERKTEITSTAETFGFEAKAGKCETHCAKLPIFLCIFFIVIIFTFMAGTPITVSILRCVNHRQRSLALGIQFMVLRLLGTIPGPIIFGFTIDSTCILWDINDCGIKGACWIYDNIKMAHMLVAISVTCKVITMFFNGFAIFLYKPPPSATDVSFHKENAVVTNVLAEQDLNKIVKEG
notes: HEK293 cells stably expressing human OATP4C1
Work on B1 yielded a Km of 70 µM.
